Numbered stars: 1 amine (or outer) side, 2 acyl side, 3 side chain; on linkers, the order of the positions; unused ones are H or OH. Bridge positions count the residues as written; N and C are the ends. Side chains are listed from the residue outwards. Ends that are not written are not given here. * marks the point of attachment. C20 diacid = O=C(O)CCCCCCCCCCCCCCCCCCC(=O)*; γGlu = O=C(O)[C@H](CCC(=O)[*:2])N[*:1]; AEEA = NCCOCCOCC(=O)O
T1: human calcitonin receptor (human, UniProt P30988 25-474)
T1 sequence (looked up): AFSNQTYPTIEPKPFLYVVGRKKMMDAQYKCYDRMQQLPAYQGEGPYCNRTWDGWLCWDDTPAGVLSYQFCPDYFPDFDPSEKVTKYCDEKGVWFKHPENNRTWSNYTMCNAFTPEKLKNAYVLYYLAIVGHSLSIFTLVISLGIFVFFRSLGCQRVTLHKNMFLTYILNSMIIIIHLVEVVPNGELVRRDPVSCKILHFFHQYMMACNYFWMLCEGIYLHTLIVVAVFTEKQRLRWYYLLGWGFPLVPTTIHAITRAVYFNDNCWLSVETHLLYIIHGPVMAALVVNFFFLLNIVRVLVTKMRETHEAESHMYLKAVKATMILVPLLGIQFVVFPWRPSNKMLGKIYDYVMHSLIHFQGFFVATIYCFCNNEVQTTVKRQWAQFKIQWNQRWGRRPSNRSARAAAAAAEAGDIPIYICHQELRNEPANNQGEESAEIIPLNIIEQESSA

T2: human amylin 3(a) receptor (human calcitonin receptor co-expressed with RAMP-3) (human, UniProt P30988 25-474; O60896 24-148, limits assumed)
T2 sequence (looked up) 1: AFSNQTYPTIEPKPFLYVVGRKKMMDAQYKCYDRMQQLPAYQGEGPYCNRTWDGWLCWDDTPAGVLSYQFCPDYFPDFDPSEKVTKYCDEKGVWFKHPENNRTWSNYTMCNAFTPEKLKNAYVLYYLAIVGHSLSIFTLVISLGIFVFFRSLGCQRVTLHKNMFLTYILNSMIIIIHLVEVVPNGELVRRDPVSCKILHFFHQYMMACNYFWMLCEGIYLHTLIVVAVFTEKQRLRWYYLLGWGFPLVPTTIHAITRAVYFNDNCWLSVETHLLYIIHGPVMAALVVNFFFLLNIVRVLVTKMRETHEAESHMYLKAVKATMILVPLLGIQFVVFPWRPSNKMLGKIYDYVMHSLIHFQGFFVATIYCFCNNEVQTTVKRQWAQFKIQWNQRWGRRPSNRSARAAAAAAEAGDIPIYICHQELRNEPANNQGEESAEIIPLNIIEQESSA
T2 sequence (looked up) 2: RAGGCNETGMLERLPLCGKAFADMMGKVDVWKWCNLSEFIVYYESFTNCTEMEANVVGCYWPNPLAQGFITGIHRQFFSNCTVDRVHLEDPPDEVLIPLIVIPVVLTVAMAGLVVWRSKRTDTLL


Legend:
[1] = target: T1, human calcitonin receptor; test: cell-based or functional assay
[2] = target: T2, human amylin 3(a) receptor (human …); test: cell-based or functional assay

hCTR funct. EC50 [1] [nM] | Ratio hCT/hAmylin funct. [2] | hAmylin-R funct. EC50 [2] [nM] | Binder
1.32 | 6 | – | {C20 diacid-γGlu}-GRCNTATCATQRLANFLRHSSPNFGAIPSSTNVGSHTY-NH2 (disulfide 3-8; SMILES CC[C@H](C)[C@H](NC(=O)[C@H](C)NC(=O)CNC(=O)[C@H](Cc1ccccc1)NC(=O)[C@H](CC(N)=O)NC(=O)[C@@H]1CCCN1C(=O)[C@H](CO)NC(=O)[C@H](CO)NC(=O)[C@H](Cc1c[nH]cn1)NC(=O)[C@H](CCCNC(=N)N)NC(=O)[C@H](CC(C)C)NC(=O)[C@H](Cc1ccccc1)NC(=O)[C@H](CC(N)=O)NC(=O)[C@H](C)NC(=O)[C@H](CC(C)C)NC(=O)[C@H](CCCNC(=N)N)NC(=O)[C@H](CCC(N)=O)NC(=O)[C@@H](NC(=O)[C@H](C)NC(=O)[C@@H]1CSSC[C@H](NC(=O)[C@H](CCCNC(=N)N)NC(=O)CNC(=O)CC[C@H](NC(=O)CCCCCCCCCCCCCCCCCCC(=O)O)C(=O)O)C(=O)N[C@@H](CC(N)=O)C(=O)N[C@@H]([C@@H](C)O)C(=O)N[C@@H](C)C(=O)N[C@@H]([C@@H](C)O)C(=O)N1)[C@@H](C)O)C(=O)N1CCC[C@H]1C(=O)N[C@@H](CO)C(=O)N[C@@H](CO)C(=O)N[C@H](C(=O)N[C@@H](CC(N)=O)C(=O)N[C@H](C(=O)NCC(=O)N[C@@H](CO)C(=O)N[C@@H](Cc1c[nH]cn1)C(=O)N[C@H](C(=O)N[C@@H](Cc1ccc(O)cc1)C(N)=O)[C@@H](C)O)C(C)C)[C@@H](C)O, h-amylin derivative, N-terminally extended by one residue; disulfide bridge and C-terminal amide as told for human amylin; also called compound 47)
5.22 | 14 | – | K([γGlu-C20 diacid])CNTATCATQRLAEFLRHSSPNFGAIPSSTNVGSRTY-NH2 (disulfide 2-7; N-terminus assumed; SMILES CC[C@H](C)[C@H](NC(=O)[C@H](C)NC(=O)CNC(=O)[C@H](Cc1ccccc1)NC(=O)[C@H](CC(N)=O)NC(=O)[C@@H]1CCCN1C(=O)[C@H](CO)NC(=O)[C@H](CO)NC(=O)[C@H](Cc1c[nH]cn1)NC(=O)[C@H](CCCNC(=N)N)NC(=O)[C@H](CC(C)C)NC(=O)[C@H](Cc1ccccc1)NC(=O)[C@H](CCC(=O)O)NC(=O)[C@H](C)NC(=O)[C@H](CC(C)C)NC(=O)[C@H](CCCNC(=N)N)NC(=O)[C@H](CCC(N)=O)NC(=O)[C@@H](NC(=O)[C@H](C)NC(=O)[C@@H]1CSSC[C@H](NC(=O)[C@@H](N)CCCCNC(=O)CC[C@H](NC(=O)CCCCCCCCCCCCCCCCCCC(=O)O)C(=O)O)C(=O)N[C@@H](CC(N)=O)C(=O)N[C@@H]([C@@H](C)O)C(=O)N[C@@H](C)C(=O)N[C@@H]([C@@H](C)O)C(=O)N1)[C@@H](C)O)C(=O)N1CCC[C@H]1C(=O)N[C@@H](CO)C(=O)N[C@@H](CO)C(=O)N[C@H](C(=O)N[C@@H](CC(N)=O)C(=O)N[C@H](C(=O)NCC(=O)N[C@@H](CO)C(=O)N[C@@H](CCCNC(=N)N)C(=O)N[C@H](C(=O)N[C@@H](Cc1ccc(O)cc1)C(N)=O)[C@@H](C)O)C(C)C)[C@@H](C)O, h-amylin derivative; disulfide bridge and C-terminal amide as told for human amylin; also called compound 51)

Second part, the binder before the results:

Binder | hCTR funct. EC50 [1] [nM] | Ratio hCT/hAmylin funct. [2] | hAmylin-R funct. EC50 [2] [nM]
K([AEEA-γGlu-C20 diacid])CNTATCATQRLANFLRHSSPNFGAIPSPTPVGSNTY-NH2 (disulfide 2-7; N-terminus assumed; SMILES CC[C@H](C)[C@H](NC(=O)[C@H](C)NC(=O)CNC(=O)[C@H](Cc1ccccc1)NC(=O)[C@H](CC(N)=O)NC(=O)[C@@H]1CCCN1C(=O)[C@H](CO)NC(=O)[C@H](CO)NC(=O)[C@H](Cc1c[nH]cn1)NC(=O)[C@H](CCCNC(=N)N)NC(=O)[C@H](CC(C)C)NC(=O)[C@H](Cc1ccccc1)NC(=O)[C@H](CC(N)=O)NC(=O)[C@H](C)NC(=O)[C@H](CC(C)C)NC(=O)[C@H](CCCNC(=N)N)NC(=O)[C@H](CCC(N)=O)NC(=O)[C@@H](NC(=O)[C@H](C)NC(=O)[C@@H]1CSSC[C@H](NC(=O)[C@@H](N)CCCCNC(=O)COCCOCCNC(=O)CC[C@H](NC(=O)CCCCCCCCCCCCCCCCCCC(=O)O)C(=O)O)C(=O)N[C@@H](CC(N)=O)C(=O)N[C@@H]([C@@H](C)O)C(=O)N[C@@H](C)C(=O)N[C@@H]([C@@H](C)O)C(=O)N1)[C@@H](C)O)C(=O)N1CCC[C@H]1C(=O)N[C@@H](CO)C(=O)N1CCC[C@H]1C(=O)N[C@H](C(=O)N1CCC[C@H]1C(=O)N[C@H](C(=O)NCC(=O)N[C@@H](CO)C(=O)N[C@@H](CC(N)=O)C(=O)N[C@H](C(=O)N[C@@H](Cc1ccc(O)cc1)C(N)=O)[C@@H](C)O)C(C)C)[C@@H](C)O, h-amylin derivative; disulfide bridge and C-terminal amide as told for human amylin; also called compound 54) | 0.987 | 9.6 | –
K([AEEA-γGlu-C20 diacid])CNTATCATQRLANFLRHSSPNFGAIPSSTNVGPHTY-NH2 (disulfide 2-7; N-terminus assumed; SMILES CC[C@H](C)[C@H](NC(=O)[C@H](C)NC(=O)CNC(=O)[C@H](Cc1ccccc1)NC(=O)[C@H](CC(N)=O)NC(=O)[C@@H]1CCCN1C(=O)[C@H](CO)NC(=O)[C@H](CO)NC(=O)[C@H](Cc1c[nH]cn1)NC(=O)[C@H](CCCNC(=N)N)NC(=O)[C@H](CC(C)C)NC(=O)[C@H](Cc1ccccc1)NC(=O)[C@H](CC(N)=O)NC(=O)[C@H](C)NC(=O)[C@H](CC(C)C)NC(=O)[C@H](CCCNC(=N)N)NC(=O)[C@H](CCC(N)=O)NC(=O)[C@@H](NC(=O)[C@H](C)NC(=O)[C@@H]1CSSC[C@H](NC(=O)[C@@H](N)CCCCNC(=O)COCCOCCNC(=O)CC[C@H](NC(=O)CCCCCCCCCCCCCCCCCCC(=O)O)C(=O)O)C(=O)N[C@@H](CC(N)=O)C(=O)N[C@@H]([C@@H](C)O)C(=O)N[C@@H](C)C(=O)N[C@@H]([C@@H](C)O)C(=O)N1)[C@@H](C)O)C(=O)N1CCC[C@H]1C(=O)N[C@@H](CO)C(=O)N[C@@H](CO)C(=O)N[C@H](C(=O)N[C@@H](CC(N)=O)C(=O)N[C@H](C(=O)NCC(=O)N1CCC[C@H]1C(=O)N[C@@H](Cc1c[nH]cn1)C(=O)N[C@H](C(=O)N[C@@H](Cc1ccc(O)cc1)C(N)=O)[C@@H](C)O)C(C)C)[C@@H](C)O, h-amylin derivative; disulfide bridge and C-terminal amide as told for human amylin; also called compound 58) | 1.03 | – | 0.047
K([AEEA-γGlu-C20 diacid])CNTATCATQRLANFLRHSSPNFGAIPSPTNVGPNTY-NH2 (disulfide 2-7; N-terminus assumed; SMILES CC[C@H](C)[C@H](NC(=O)[C@H](C)NC(=O)CNC(=O)[C@H](Cc1ccccc1)NC(=O)[C@H](CC(N)=O)NC(=O)[C@@H]1CCCN1C(=O)[C@H](CO)NC(=O)[C@H](CO)NC(=O)[C@H](Cc1c[nH]cn1)NC(=O)[C@H](CCCNC(=N)N)NC(=O)[C@H](CC(C)C)NC(=O)[C@H](Cc1ccccc1)NC(=O)[C@H](CC(N)=O)NC(=O)[C@H](C)NC(=O)[C@H](CC(C)C)NC(=O)[C@H](CCCNC(=N)N)NC(=O)[C@H](CCC(N)=O)NC(=O)[C@@H](NC(=O)[C@H](C)NC(=O)[C@@H]1CSSC[C@H](NC(=O)[C@@H](N)CCCCNC(=O)COCCOCCNC(=O)CC[C@H](NC(=O)CCCCCCCCCCCCCCCCCCC(=O)O)C(=O)O)C(=O)N[C@@H](CC(N)=O)C(=O)N[C@@H]([C@@H](C)O)C(=O)N[C@@H](C)C(=O)N[C@@H]([C@@H](C)O)C(=O)N1)[C@@H](C)O)C(=O)N1CCC[C@H]1C(=O)N[C@@H](CO)C(=O)N1CCC[C@H]1C(=O)N[C@H](C(=O)N[C@@H](CC(N)=O)C(=O)N[C@H](C(=O)NCC(=O)N1CCC[C@H]1C(=O)N[C@@H](CC(N)=O)C(=O)N[C@H](C(=O)N[C@@H](Cc1ccc(O)cc1)C(N)=O)[C@@H](C)O)C(C)C)[C@@H](C)O, h-amylin derivative; disulfide bridge and C-terminal amide as told for human amylin; also called compound 56) | 0.506 | 5 | 0.102
K([AEEA-γGlu-C20 diacid])CNTATCATQRLANFLRHSSPNFGAIPSSTPVGSHTY-NH2 (disulfide 2-7; N-terminus assumed; SMILES CC[C@H](C)[C@H](NC(=O)[C@H](C)NC(=O)CNC(=O)[C@H](Cc1ccccc1)NC(=O)[C@H](CC(N)=O)NC(=O)[C@@H]1CCCN1C(=O)[C@H](CO)NC(=O)[C@H](CO)NC(=O)[C@H](Cc1c[nH]cn1)NC(=O)[C@H](CCCNC(=N)N)NC(=O)[C@H](CC(C)C)NC(=O)[C@H](Cc1ccccc1)NC(=O)[C@H](CC(N)=O)NC(=O)[C@H](C)NC(=O)[C@H](CC(C)C)NC(=O)[C@H](CCCNC(=N)N)NC(=O)[C@H](CCC(N)=O)NC(=O)[C@@H](NC(=O)[C@H](C)NC(=O)[C@@H]1CSSC[C@H](NC(=O)[C@@H](N)CCCCNC(=O)COCCOCCNC(=O)CC[C@H](NC(=O)CCCCCCCCCCCCCCCCCCC(=O)O)C(=O)O)C(=O)N[C@@H](CC(N)=O)C(=O)N[C@@H]([C@@H](C)O)C(=O)N[C@@H](C)C(=O)N[C@@H]([C@@H](C)O)C(=O)N1)[C@@H](C)O)C(=O)N1CCC[C@H]1C(=O)N[C@@H](CO)C(=O)N[C@@H](CO)C(=O)N[C@H](C(=O)N1CCC[C@H]1C(=O)N[C@H](C(=O)NCC(=O)N[C@@H](CO)C(=O)N[C@@H](Cc1c[nH]cn1)C(=O)N[C@H](C(=O)N[C@@H](Cc1ccc(O)cc1)C(N)=O)[C@@H](C)O)C(C)C)[C@@H](C)O, h-amylin derivative; disulfide bridge and C-terminal amide as told for human amylin; also called compound 57) | 3.12 | – | 0.089

— US20140087995A1 (published 2014)
